Measurements reported in the DeepSol protein solubility set.

experiment: soluble on expression in E. coli; label from the status in PepcDB or PDB records

Sequence	soluble on expression in E. coli
MGSDKIHHHHHHMNFTMNFPGLKDTFITKVEEVGEIVRLYVEMERKVHRCPKCQKRTKKVHDYRIQKIKHLKWFERQTQIFYKRRRYVCACGKRFAENNSFVERYQRTSIEWNQAVAIRAIKGKTFKETAENYGSSATTIVRRFDQISSSEIRPVEELPAIIAIDEYKGDTKEGKYQLIIADAVTKEPLDILPNRYKRTIKDYLRRHGSKVQMVIMDMSPSFKAAVQEALGRPVIIADRFHFCRYIYWALDGVRRRVQKDFHAYDRKKCKRMKHVFHKENSRLTEEERWYLDRYLKMSTELQKAYELKEAYQDWFKRSKEIGATQIERVKKELKAIYKLVKNSGIPEMCRAIGTFENWQTEILNSFAYGYSNGFLEGINNSTKVLKRNAFGFRSYERFRAKILLTHKYKRIGVHIG	not soluble
MSVLQKIADIEAEMARTQKNKATNAHLGILKAKLAKLRRDLITPKGGGGGPGEGFDVAKTGDARIGFVGFPSVGKSTLLCNLAGVFSEVAAYEFTTLTTVPGVIRYKGAKIQLLDLPGIIEGAKDGKGRGKQVIAVARTCSLILMVLDVMKPLQHKKLLEYELEGFGIRLNKQPPNIGYKRKEKGGINLTMLVPQSELDLDLVKSILAEYRIHNADITLRYDATSEDLIDVIEGNRIYIPCIYVLNKIDQISIEELDIIYRIPHTVPISAHHKWNFDDLLEKVWEYLNLIRIYTKPKGQLPDYSQPIVLNAERKSIEDLCTKIHKSLQKDFKCALVWGASAKHNPQRVGRDHVLIDEDVVQVIKKV	not soluble
MKHQHQHQHQHQHQQPLNEEFRPEMLQGKKVIVTGASKGIGREMAYHLAKMGAHVVVTARSKETLQKVVSHCLELGAASAHYIAGTMEDMTFAEQFVAQAGKLMGGLDMLILNHITNTSLNLFHDDIHHVRKSMEVNFLSYVVLTVAALPMLKQSNGSIVVVSSLAGKVAYPMVAAYSASKFALDGFFSSIRKEYSVSRVNVSITLCVLGLIDTETAMKAVSGIVHMQAAPKEECALEIIKGGALRQEEVYYDSSLWTTLLIRNPSRKILEFLYSTSYNMDRFINK	soluble
MLLQVHRLLFEKFYPWAGRDRLELVPHLSVWKGPKGAPRRTFFESPAMIERAVDYALSLASKKQGFMQKPGEVMGLLCFAHPFLDGNGRSILLFYMELSYRAGFAIDWASTRKDDYLQALDDEIHNPGKGHL	soluble
MLRIVLARSSRAMSSASPASASDSDTSVRKIGKALETYLKHSQQHVAMMEKHRAEFETGRRHLAKMMSLDIHELDQEAIDRAILYLFPSGLTDPNARPVMRPPDEILPKFQRFTFDEEGKPEGSRFFTLSPKIYGLLSDIGVKTHSVMKFYDEHVGSRSVNRSDLEPANLSGSQWVTADKLKKKLSEKFSKELYGQVIIAFEHLASLPGSAIEQKFLMEFREPMTASTGSKLFGPAIPEVHVCAVTNRRYAEVTTRCKDTRATVKVTDAGKGKFDIDGLQLHDFRHLQAREILLAPMIVSQSLGRFDVTATTSCISNTLPEAPNKAPLMRSGGMSALPRAVRHGTALCVAALQPEAIEPLRLSGLLTLDPRKNERSKVNQPGARAKWIWKRR	not soluble
MASPISHSSHENASGKYGYGDESQHGKNFHQKAEHSGHEAKEKGYSQDGKAADHDALHKDAAEHKQNKEAHQSGSGNKYVDDASNYNKDVKTKTFGFFDYRYVQPQYHMEQYHTDEKHANKYAGDEHNAGQQHKDNGGYHADGHQGYDKAQEKHGASHTNYGNEDAGHKSKYDDNEGKYGDHTDGYYNKGYDNYGQGHDSESYQPSYYQPKPKYYGGHQSHYQPSARHSSPYQGDQYYGYEAPHY	not soluble
MFCGRFANFIMRDVINFIKKYNNFVIIGHKDPDFDCIGSSLALSSFLSRIGKNSILLNEGPFIRKEIVPFKDKFLSEWPNIEISEYSVIILDCSILDRIGDEFIFYVKNMPTLVIDHHMSGEKLECEGYIDPFAPSTTFLIEKLIREFGHDLTKEEAWYILVGFCTDTGFFKFISRSDPEPFEMVARLVSKGISLKEVYSYIETTKSLKSIETLKLMLNSLESYWNGKVLFTFLSSSSSGKDGGVSGVNELFYMILSNVENNEILGILKEMEDGSIIVGLRSKDSFDVGKLAEDFGGGGHKNASGFRIKQGSLEIVKNRMLAYIKDNIYLLEHHHHHH	not soluble
MSSGSTSTTPRAWLSGSVVTGKCCLLVIRKGQRPGVPFPAPCASGVAVTGRPPCATGGRGRTRPPTGVGEDTKDSCGKGIADETPRRHHGGPATRKAGRATGRSERGHSRGTRPAELMPIPRSPVVVALGAFEISNES	not soluble
MISNKNIFNRFQQWMDTFLMLELQWFLIYANVANQMIVYGCCQMSKKTSNETPKVFLMLGHFFVSLKYPGATETKNWSKKLPFHYFHKYV	not soluble
MDAAKVRSEFDEKMMRYALELADKAEALGEIPVGAVLVDDARNIIGEGWNLSIVQSDPTAHAEIIALRNGAKNIQNYRLLNSTLYVTLEPCTMCAGAILHSRIKRLVFGASDYKTGAIGSRFHFFDDYKMNHTLEVTSGVLAEECSQKLSTFFQKRREEKKIEKALLKSLSDKLEHHHHHH	not soluble
MGSDKIHHHHHHMNKMKIAHLTSAHPRHDIRIFVKECSSLAAAGHEVTLIVADGQGEEIRNGVRIHDVGPKRGGRLARMTGTVKRVYQAALRLRPDVVHFHDPELIPAGVRLKQAGIKVVYDVHEDVPRQILAKHWIPGAVRPLVSGGFETLEDWAARRFDAIVTSTPHIRKRFERLGANALDVCNFPILEELVRDTPWESRRNEVCYIGGISRIRGIEPIVAALPDTSTRLNLAGPWSESDLRAKVTAEPGWARVNDLGVLDRKGVAEVLARSKIGLVTLFPTPNYVDALPIKLFEYMAAGMPVIASDFPVWREIVADAGCGVLVDPQDAAAIAAAINELLGDEERMRKLGESGKRAVLSKYSWAAEADKLVALYASL	not soluble
MTLNIQGIAASSGIAIAKAFRLENPEFNIEQKSITNEAAEIARLEAALEKAKTELEAIKDHAFAELGADKAAIFEAHLLVLNDPELVNPVKDKVNSEKVNAEFAMDEVASMFISMFENMDNEYMKERAADIRDVTKRVLAHLLGINFSNPGTNSEEVIIIAEDLTPSDTAQLNRKYAKGFTTDIGGRTSHSAIMARSMEIPAVVGTKVVMEKIQNGDIVIIDGLDGEVIVNPSEETLRSFEEKKAKFEEQKAEWAKLKDQATVTSDGHHVELVANIGTLNDVQGIIDNGGEGVGLYRTEFLYMGRDNLPTEEEQFEAYKAVLEGVKEGQPVVVRTLDIGGDKELPYLHLPKEMNPFLGYRAIRLCLDEQDVFRTQLRALLRASVYGNLKIMFPMIATLDEFRQAKAILLEEKAKLVEVGTTVSDSIEVGMMVEIPASAVLADQFAKEVDFFSIGTNDLIQYTMAADRMNEQVSYLYQPYNLSILRLVKMVIDAAHKEGKWAGMCGEMAGDSLAIPLLLGLGLDEFSMSATSILPARTQLSKLSKAEMETLAEKALMMSTAEEVVELVKSI	not soluble
VGKEKAEVELLQVDADLQAEIVGKYNADLQKAVQIEEKKAREIATEAVKEHVTAEYEERYAEHEEHDRIMRDVAEILEQMEHAEVRRLITEDKVRPDGRRVDEIRP	not soluble
AKGRAGRSKRTEQDHYETDYTTGGESCDELEEDWIREYPPITSDQQRQLYKRNFDTGLQEYKSLQSVLDEINKELSRLDKELDDYREESEEYMAAADEYNRLKQVKGSADYKSKKNHCKQLKSKLSHIKKMVGDYDRQKT	soluble
MKIVRRDFVRNGPGSVKMVAEDSDDLWYAYNLIAVGDSVMAVTFRKVQREIPGGGRDSERVKLKLEVQVEEVDYDKDGSVLRIRGKNILENEHVKIGAFHTLELELKRPFVLRKEMWDSMALDTLKQASDPAASADLAVVLMQEGLAQIFLVGRSVTSSRARIETSIPRKHGPAIAGYESALKKFFENVLQAFVKHVDFSVVRCAVVASPGFTKDQFHRHLLLEAERRQLRPIIENKSRIILVHTNSGYRHSLGEVLHAPNVMNMIKDTKAAKEVKALNDFHNMLSTEPDRACYGPKHVEVANERMAIQTLLITDELFRNSDVKTRKKYVNLVESVKDSGGDAFIFSAMHVSGEQLAQLTGIAALLRFPLPELEDIEM	soluble
REAFVSIQTSTIPKTAYAAVNFVETQGEDESYTDSLSTDNKRDIYADFAVIEIPLFLTNHRDYQVFNEFIKPAIETYKQLGNSSFEKKQLDQHKNDNFYMLGYPLVESSIDALILNQRRQYNNSYTEKYTPQTLTKDQRTIDLSREVPTLIQNKTENSTGSQLLVNQSLSSTSEGIIE	soluble
MSLKILVLGIGNILFGDEGIGVHLSNLLKVNYRFEGPHQVDVIDGGTLAQLLIPLITSYDYVIVIDCVDAGGGKIGEVYFFDFDNVPNVITWQGSAHEVEMLQTLRMTEVNGDLPPVKIVGVIPSIIGSETAFDLSKEVAEASVTMEKIVLNHLQELGVEITRIDSKTIDEIAPLSYKGEGHHHHHH	soluble
MAHHHHHHSLNVLKDKLSGKNVKIVLPEGEDERVLTAATQLQATDYVTPIVLGDETKVQSLAQKLDLDISNIELINPATSELKAELVQSFVERRKGKATEEQAQELLNNVNYFGTMLVYAGKADGLVSGAAHSTGDTVRPALQIIKTKPGVSRTSGIFFMIKGDEQYIFGDCAINPELDSQGLAEIAVESAKSALSFGMDPKVAMLSFSTKGSAKSDDVTKVQEAVKLAQQKAEEEKLEAIIDGEFQFDAAIVPGVAEKKAPGAKLQGDANVFVFPSLEAGNIGYKIAQRLGGYDAVGPVLQGLNSPVNDLSRGCSIEDVYNLSIITAAQALQEG	soluble
MSLNRIILIGNGFDLAHGLPTRYEDFINWYWEKRVDSFIGNLTPISEDCLCSIKITSDNYNRCWNVFAFCLPKFFNKPSGKEIIDSIANDSKSFELSLSPFFFNICTCIETKGWVDIEKEYYDLLRNAIINPDNCNYTISEINKQLHYIQGLLAQYLSSITTDNIKCNKEIQRQIYGNIRKDDVSISQLQVYYDYVDHLIQQDNVYQQLLCRYGYESSDRHFMAEDIKQLRKQFVGSSEIEEIYLKDLIFPENIVLLNFNYTEVADKYGCLKVASTNHIHGDLNNPDSIIFGYGDELDEDYRDFLKQSDNECLRNIKSIKYLESGKYRNLLQFIESAPYQVYIMGHSCGNSDRTLLNTLFEHKNCVSIKPYYYQKDDGSDNYLEIAQNICRNFTDMKLMRDRVVNKMFCEPLPQYIKEGHHHHHH	soluble
MGSDKIHHHHHHMKVKSVSEILIYPPDRIVGDLWIVRNWVTKRNYKVSSPTLAILLYCKIPHTVGDILDFFYEKYGIKNELIHLGLKKLMATDLLLEVKQEMDGSNEVFGLEFDNWYKHNWYMALLYHLVSYDYPFIEDYVAKQRMINYSSQEIDSNRYKEYNSQVSYDIPKATEVKIRETNTSKQKCVNFADLLTMASLGYTRVGSLRVYWNGDPLILRTSPSGGSRHPTETYIVAINVEGLESGWYHISVKDSKLEQIKIGGTDPDDLRLLFPTTYVRPDFHVDLILIFTSIFERNMYRYREPRTFRTIHMDVGHLAATTEIICEKLGYKYLVQYSANDEGIEKFLGLSPLKEGYMASMAIGN	not soluble
